According to patent publication US10772928B2, “Modulation and detection of a neuronal alternative splicing regulatory network for treatment and diagnosis of neurological disorders” (The Governing Council of the University of Toronto, priority 2014, dated 2020):
Blank lines part the entries; values can stand above or below the molecule they belong to.

Target: T1, nSR100 (Mus musculus, UniProt Q8BKA3)
T1 construct: host or cells: mouse N2A cells
T1 sequence (Q8BKA3 1-608): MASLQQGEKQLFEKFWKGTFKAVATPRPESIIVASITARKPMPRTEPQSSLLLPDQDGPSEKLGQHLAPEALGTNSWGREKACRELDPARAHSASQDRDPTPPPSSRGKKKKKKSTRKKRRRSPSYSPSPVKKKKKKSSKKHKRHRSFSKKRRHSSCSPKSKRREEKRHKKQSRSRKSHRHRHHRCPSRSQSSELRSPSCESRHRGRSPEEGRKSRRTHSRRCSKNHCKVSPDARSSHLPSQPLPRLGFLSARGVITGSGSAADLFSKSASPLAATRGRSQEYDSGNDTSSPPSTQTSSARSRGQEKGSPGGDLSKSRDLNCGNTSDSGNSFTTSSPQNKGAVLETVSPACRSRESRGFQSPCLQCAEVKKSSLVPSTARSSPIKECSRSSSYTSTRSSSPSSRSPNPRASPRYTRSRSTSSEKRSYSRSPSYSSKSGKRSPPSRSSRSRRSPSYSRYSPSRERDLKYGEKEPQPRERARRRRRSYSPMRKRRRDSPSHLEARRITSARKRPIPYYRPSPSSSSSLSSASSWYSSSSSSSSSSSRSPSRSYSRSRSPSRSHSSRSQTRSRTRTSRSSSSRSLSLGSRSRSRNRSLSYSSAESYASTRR
Assay: AP-MS nSR100 interaction partners from mouse N2A cells (Table 5)
Format: binding
Conditions: for AvgP (average of the SAINT scores) / MaxP (maximal SAINT score): bait Srrm4; for FoldChange between the prey Avg spectra of the bait and control purifications: bait Srrm4, 0.1 added to prevent division by 0; for AvgSpec (average number of spectra per replicate): bait Srrm4, 2 replicates; for Spectra (number of spectra for the prey in the purification of the bait): AP-MS; for SpecSum: bait Srrm4, sum of spectra over 2 replicates

[1] = bait Srrm4, biological replicate 1 (first number of the cell)
[2] = bait Srrm4, biological replicate 2 (second number of the cell)

From the text: By applying affinity purification coupled to mass-spectrometry (AP-MS), several interaction nSR100 partner proteins were detected that provide insight into mechanisms of post-translational regulation of nSR100 levels.

B2: Luc7l (protein, UniProt Q9CYI4 1-371, looked up)
Putative RNA-binding protein …: MSAQAQMRALLDQLMGTARDGDETRQRVKFTDDRVCKSHLLDCCPHDILAGTRMDLGECTKIHDLALRADYEIASKERDLFFELDAMDHLESFIAECDRRTELAKKRLAETQEEISAEVSAKAEKVHELNEEIGKLLAKAEQLGAEGNVDESQKILMEVEKVRAKKKEAEEEYRNSMPASSFQQQKLRVCEVCSAYLGLHDNDRRLADHFGGKLHLGFIQIREKLDQLRKTVAEKQEKRNQDRLRRREEREREERLGRRSGSRTRDRRRSRSRDRRRRRSRSTSRERRKFSRSRSRDRYRRHRSRSRSHSRGHRRASRDRSTKYKFSRERSLREESWEYGRNERGPTDWRLENSNGKTASRRSEEKEAGEI
- AvgP (average of the SAINT scores): 0.95
- MaxP (maximal SAINT score): 0.99
- FoldChange between the prey Avg spectra of the bait and control purifications: 3.17
- AvgSpec (average number of spectra per replicate): 19
- Spectra (number of spectra for the prey in the purification of the bait) [1]: 18
- Spectra (number of spectra for the prey in the purification of the bait) [2]: 20
- SpecSum: 38

B4: Sf3b2 (protein, UniProt Q3UJB0 1-878, looked up)
Splicing factor 3B subunit 2: MAAEHPEPPKGELQLPPPPPPGHYGAWAAQELQARLAEIGAPIQGSREELVERLQTYTRQTGIVLNRPVLRGEDGDKAAPPPMSAQLSGIPMPPPPMGLPPLQPPPPPPPPPPGLGLGFPMAHPPNLGPPPPLRVGEPVALSEEERLKLAQQQAALLMQQEERAKQAAVLMEQERQQEIAKMGTAVPRPPQDMGQLGVRTPLGPRVAAPVGPVVPTPTVLPMGAPVPRPRGPPPPPGDENREMDDPSVGPKIPQALEKILQLKESRQEEMNSQQEEEEMETDTRSSLGQSASETEEDTVSISKKEKNRKRRNRKKKKKPQRVRAASSESSGDREKDSGRSRGSDPPAADVEIEYVTEEPEIYEPNFIFFKRIFEAFKLTDDVKKEKEKEPEKLDKMESSAVPKKKGFEEEHKDSDDDSSDDEQEKKPEAPKLSKKKLRRMNRFTVAELKQLVARPDVVEMHDVTAQDPKLLVHLKATRNSVPVPRHWCFKRKYLQGKRGIEKPPFELPDFIKRTGIQEMREALQEKEEQKTMKSKMREKVRPKMGKIDIDYQKLHDAFFKWQTKPKLTIHGDLYYEGKEFETRLKEKKPGDLSDELRISLGMPVGPNAHKVPPPWLIAMQRYGPPPSYPNLKIPGLNSPIPESCSFGYHAGGWGKPPVDETGKPLYGDVFGTNAAEFQTKTEEEEIDRTPWGELEPSDEESSEEEEEEESDEDKPDETGFITPADSGLITPGGFSSVPAGMETPELIELRKKKIEEAMDGSETPQLFTVLPEKRTATVGGAMMGSTHIYDMSTVMSRKGPAPELQGVEVALAPEELELDPMAMTQKYEEHVREQQAQVEKEDFSDMVAEHAAKQKQKKRKAQPQDSRGGSKKYKEFKF
- AvgP (average of the SAINT scores): 0.96
- MaxP (maximal SAINT score): 0.96
- FoldChange between the prey Avg spectra of the bait and control purifications: 3.08
- AvgSpec (average number of spectra per replicate): 20
- Spectra (number of spectra for the prey in the purification of the bait) [1]: 20|20
- Spectra (number of spectra for the prey in the purification of the bait) [2]: 20|20
- SpecSum: 40

B5: Smc3 (protein, UniProt Q9CW03 1-1217, looked up)
Structural maintenance of …: MYIKQVIIQGFRSYRDQTIVDPFSSKHNVIVGRNGSGKSNFFYAIQFVLSDEFSHLRPEQRLALLHEGTGPRVISAFVEIIFDNSDNRLPIDKEEVSLRRVIGAKKDQYFLDKKMVTKNDVMNLLESAGFSRSNPYYIVKQGKINQMATAPDSQRLKLLREVAGTRVYDERKEESISLMKETEGKREKINELLKYIEERLHTLEEEKEELAQYQKWDKMRRALEYTIYNQELNETRAKLDELSAKRETSGEKSRQLRDAQQDARDKMEDIERQVRELKTKISAMKEEKEQLSAERQEQIKQRTKLELKAKDLQDELAGNSEQRKRLLKERQKLLEKIEEKQKELAETEPKFNSVKEKEERGIARLAQATQERTDLYAKQGRGSQFTSKEERDKWIKKELKSLDQAINDKKRQIAAIHKDLEDTEANKEKNLEQYNKLDQDLNEVKARVEELDRKYYEVKNKKDELQSERNYLWREENAEQQALAAKREDLEKKQQLLRAATGKAILNGIDSINKVLEHFRRKGINQHVQNGYHGIVMNNFECEPAFYTCVEVTAGNRLFYHIVDSDEVSTKILMEFNKMNLPGEVTFLPLNKLDVRDTAYPETNDAIPMISKLRYNPRFDKAFKHVFGKTLICRSMEVSTQLARAFTMDCITLEGDQVSHRGALTGGYYDTRKSRLELQKDVRKAEEELGELEAKLNENLRRNIERINNEIDQLMNQMQQIETQQRKFKASRDSILSEMKMLKEKRQQSEKTFMPKQRSLQSLEASLHAMESTRESLKAELGTDLLSQLSLEDQKRVDALNDEIRQLQQENRQLLNERIKLEGIITRVETYLNENLRKRLDQVEQELNELRETEGGTVLTATTSELEAINKRVKDTMARSEDLDNSIDKTEAGIKELQKSMERWKNMEKEHMDAINHDTKELEKMTNRQGMLLKKKEECMKKIRELGSLPQEAFEKYQTLSLKQLFRKLEQCNTELKKYSHVNKKALDQFVNFSEQKEKLIKRQEELDRGYKSIMELMNVLELRKYEAIQLTFKQVSKNFSEVFQKLVPGGKATLVMKKGDVEGSQSQDEGEGSGESERGSGSQSSVPSVDQFTGVGIRVSFTGKQGEMREMQQLSGGQKSLVALALIFAIQKCDPAPFYLFDEIDQALDAQHRKAVSDMIMELAVHAQFITTTFRPELLESADKFYGVKFRNKVSHIDVITAEMAKDFVEDDTTHG
- AvgP (average of the SAINT scores): 0.91
- MaxP (maximal SAINT score): 0.96
- FoldChange between the prey Avg spectra of the bait and control purifications: 7
- AvgSpec (average number of spectra per replicate): 7
- Spectra (number of spectra for the prey in the purification of the bait) [1]: 6
- Spectra (number of spectra for the prey in the purification of the bait) [2]: 8
- SpecSum: 14

Other lines, results leading:

- AvgP (average of the SAINT scores): 0.95
- MaxP (maximal SAINT score): 0.95
- FoldChange between the prey Avg spectra of the bait and control purifications: 20
- AvgSpec (average number of spectra per replicate): 2
- Spectra (number of spectra for the prey in the purification of the bait) [1]: 2|2
- Spectra (number of spectra for the prey in the purification of the bait) [2]: 2|2
- SpecSum: 4
B1: Crnkl1 (protein, UniProt P63154 1-690, looked up)
Crooked neck-like protein 1: MAASTAAGKQRIPKVAKVKNKAPAEVQITAEQLLREAKERELELLPPPPQQKITDEEELNDYKLRKRKTFEDNIRKNRTVISNWIKYAQWEESLKEIQRARSIYERALDVDYRNITLWLKYAEMEMKNRQVNHARNIWDRAITTLPRVNQFWYKYTYMEEMLGNVAGARQVFERWMEWQPEEQAWHSYINFELRYKEVERARTIYERFVLVHPAVKNWIKYARFEEKHAYFAHARKVYERAVEFFGDEHMDEHLYVAFAKFEENQKEFERVRVIYKYALDRISKQEAQELFKNYTIFEKKFGDRRGIEDIIVSKRRFQYEEEVKANPHNYDAWFDYLRLVESDAEADTVREVYERAIANVPPIQEKRHWKRYIYLWVNYALYEELEAKDPERTRQVYQASLELIPHKKFTFAKMWLYYAQFEIRQKNLPFARRALGTSIGKCPKNKLFKGYIELELQLREFDRCRKLYEKFLEFGPENCTSWIKFAELETILGDIERARAIYELAISQPRLDMPEVLWKSYIDFEIEQEETERTRNLYRQLLQRTQHVKVWISFAQFELSSGKEGSVAKCRQIYEEANKTMRNCEEKEERLMLLESWRSFEDEFGTVSDKERVDKLMPEKVKKRRKVQADDGSDAGWEEYYDYIFPEDAANQPNLKLLAMAKLWKKQQQEREAAEQDPDKDIDESESSSF

- AvgP (average of the SAINT scores): 0.96
- MaxP (maximal SAINT score): 0.98
- FoldChange between the prey Avg spectra of the bait and control purifications: 9
- AvgSpec (average number of spectra per replicate): 4.5
- Spectra (number of spectra for the prey in the purification of the bait) [1]: 4
- Spectra (number of spectra for the prey in the purification of the bait) [2]: 5
- SpecSum: 9
B3: Rbmx2 (protein, UniProt Q8R0F5 1-326, looked up)
RNA-binding motif protein, …: MNPLTKVKLINELNEREVQLGVAEKVSWHSEYKHSAWIFVGGLPYELTEGDIICVFSQYGEIVNINLVRDKKTGKSKGFCFLCYEDQRSTVLAVDNFNGIKIKGRTIRVDHVSNYRAPQESEDVDDVTRELQEKGCGVKTPPSSPPEVSEDEDAKLTKKHKKDKKEKKKRKKEKTEGQAQAEQPSCSRSATVKEKKDERASRKHSSKTSERAQKSEHRESKKSHSGSPDGRSSYHARAEDPECKARKEKPKHEHKSASRREAEEKSRERERGRSSGTHSGRHRGHSDGRSHRSRSRSRSPDKSHRHKKYRHSRERDSYHGSDRRHH

- AvgP (average of the SAINT scores): 0.97
- MaxP (maximal SAINT score): 0.99
- FoldChange between the prey Avg spectra of the bait and control purifications: 25
- AvgSpec (average number of spectra per replicate): 2.5
- Spectra (number of spectra for the prey in the purification of the bait) [1]: 2
- Spectra (number of spectra for the prey in the purification of the bait) [2]: 3
- SpecSum: 5
B6: Bcas2 (protein, UniProt Q9D287 2-225, looked up)
Pre-mRNA-splicing factor SPF27: AGTGLVAGEVVVDALPYFDQGYEAPGVREAAAALVEEETRRYRPTKNYLSYLTAPDYSAFETDIMRNEFERLAARQPIELLSMKRYELPAPSSGQKNDITAWQECVNNSMAQLEHQAVRIENLELMSQHGCNAWKVYNENLVHMIEHAQKELQKLRKHIQDLNWQRKNMQLTAGSKLREMESNWVSLVSKNYEIERTIVQLENEIYQIKQQHGEANKENIRQDF

- AvgP (average of the SAINT scores): 0.97
- MaxP (maximal SAINT score): 1
- FoldChange between the prey Avg spectra of the bait and control purifications: 30
- AvgSpec (average number of spectra per replicate): 3
- Spectra (number of spectra for the prey in the purification of the bait) [1]: 2
- Spectra (number of spectra for the prey in the purification of the bait) [2]: 4
- SpecSum: 6
B7: Sf3a2 (protein, UniProt Q62203 1-475, looked up)
Splicing factor 3A subunit 2: MDFQHRPGGKTGSGGVASSSESNRDRRERLRQLALETIDINKDPYFMKNHLGSYECKLCLTLHNNEGSYLAHTQGKKHQTNLARRAAKEAKEAPAQPAPEQVKVEVKKFVKIGRPGYKVTKQRDTEMGQQSLLFQIDYPEIAEGIMPRHRFMSAYEQRIEPPDRRWQYLLMAAEPYETIAFKVPSREIDKAEGKFFFLQFHFKMEKPPAPPSLPAGPPGVKRPPPPLMNGLPPRPPLPDALPPPPPGGLPLPPMPPTGPAPSGPPGPPQMPPPAPGVHPPAPVVHPPTSGVHPPAPGVHPPAPVVHPPTSGVHPPAPGVHPPTPGVHPPAPGVHPPAPGVHPPAPGVHPPTPGVHPPAPGVHPPAPGVHPPAPGVHPPPSAGVHPQAPGVHPPAPAVHPQAPGVHPPAPGIHPQAPGVHPQPPPGVHPAAPGVHPQPPGVHPSNPGVHPAPMPPMLRPPLPSDGPGNMPPPPPGN
